Reference: publication PMC6078464

Target: PEDV nsp15 (H241A) (PEDV FJZZ strain)
Test: AUC

Substance: PEDV nsp15 (H241A) (enzyme)
- percentage as hexamer: 81.2%
